T1: His-SAPK3, O08911
T1 chain: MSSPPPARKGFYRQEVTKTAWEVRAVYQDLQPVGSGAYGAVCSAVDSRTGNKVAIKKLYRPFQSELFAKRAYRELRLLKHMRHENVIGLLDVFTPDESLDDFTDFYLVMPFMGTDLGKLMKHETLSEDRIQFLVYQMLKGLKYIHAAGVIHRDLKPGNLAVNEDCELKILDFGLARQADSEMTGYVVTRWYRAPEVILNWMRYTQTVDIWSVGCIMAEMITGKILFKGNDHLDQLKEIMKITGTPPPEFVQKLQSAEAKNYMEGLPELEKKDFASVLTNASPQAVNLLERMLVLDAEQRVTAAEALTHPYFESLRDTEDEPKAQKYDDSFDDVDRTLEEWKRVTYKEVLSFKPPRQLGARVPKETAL

B1: His-MKK6 (protein)
chain: MSQSKGKKRNPGLKIPKEAFEQPQTSSTPPRDLDSKACISIGNQNFEVKADDLEPIMELGRGAYGVVEKMRHVPSGQIMAVKRIRATVNSQEQKRLLMDLDISMRTVDCPFTVTFYGALFREGDVWICMELMDTSLDKFYKQVIDKGQTIPEDILGKIAVSIVKALEHLHSKLSVIHRDVKPSNVLINALGQVKMCDFGISGYLVDSVAKTIDAGCKPYMAPERINPELNQKGYSVKSDIWSLGITMIELAILRFPYDSWGTPFQQLKQVVEEPSPQLPADKFSAEFVDFTSQCLKKNSKERPTYPELMQHPFFTLHESKGTDVASFVKLILGD
B2: activated GST-MKK7 (protein)
chain: AASSLEQKLSRLEAKLKQENREARRRIDLNLDISPQRPRPIIVITLSPAPAPSQRAALQLPLANDGGSRSPSSESSPQHPTPPARPRHMLGLPSTLFTPRSMESIEIDQKLQEIMKQTGYLTIGGQRYQAEINDLENLGEMGSGTCGQVWKMRFRKTGHVIAVKQMRRSGNKEENKRILMDLDVVLKSHDCPYIVQCFGTFITNTDVFIAMELMGTCAEKLKKRMQGPIPERILGKMTVAIVKALYYLKEKHGVIHRDVKPSNILLDERGQIKLCDFGISGRLVDSKAKTRSAGCAAYMAPERIDPPDPTKPDYDIRADVWSLGISLVELATGQFPYKNCKTDFEVLTKVLQEEPPLLPGHMGFSGDFQSFVKDCLTKDHRKRPKYNKLLEHSFIKRYETLEVDVASWFKDVMAKTESPRTSGVLSQPHLPFFR
B3: His-MKK7 (protein)
chain: AASSLEQKLSRLEAKLKQENREARRRIDLNLDISPQRPRPIIVITLSPAPAPSQRAALQLPLANDGGSRSPSSESSPQHPTPPTRPRHMLGLPSTLFTPRSMESIEIDQKLQEIMKQTGYLTIGGQRYQAEINDLENLGEMGSGTCGQVWKMRFRKTGHIIAVKQMRRSGNKEENKRILMDLDVVLKSHDCPYIVQCFGTFITNTDVFIAMELMGTCAEKLKKRMQGPIPERILGKMTVAIVKALYYLKEKHGVIHRDVKPSNILLDERGQIKLCDFGISGRLVDSKAKTRSAGCAAYMAPERIDPPDPTKPDYDIRADVWSLGISLVELATGQFPYKNCKTDFEVLTKVLQEEPPLLPGHMGFSGDFQSFVKDCLTKDHRKRPKYNKLLEHSFIKHYEILEVDVASWFKDVMAKTESPRTSGVLSQHHLPFFSGSLEESPTSPPSPKSFPLSPAIPQAQAEWVSGR
B4: GST-SEK1 (protein)
chain: MAAPSPSGGGGSGGGGGTPGPIGPPASGHPAVSSMQGKRKALKLNFANPPVKSTARFTLNPNTTGVQNPHIERLRTHSIESSGKLKISPEQHWDFTAEDLKDLGEIGRGAYGSVNKMVHKPSGQIMAVKRIRSTVDEKEQKQLLMDLDVVMRSSDCPYIVQFYGALFREGDCWICMELMSTSFDKFYKYVYSVLDDVIPEEILGKITLATVKALNHLKENLKIIHRDIKPSNILLDRSGNIKLCDFGISGQLVDSIAKTRDAGCRPYMAPERIDPSASRQGYDVRSDVWSLGITLYELATGRFPYPKWNSVFDQLTQVVKGDPPQLSNSEEREFSPSFINFVNLCLTKDESKRPKYKELLKHPFILMYEERTVEVACYVCKILDQMPATPSSPMYVD

Tests used:
His-SAPK3, O08911 = molecular target: T1, His-SAPK3, O08911

Sequence of His-p38, P47811 (P47811 whole entry): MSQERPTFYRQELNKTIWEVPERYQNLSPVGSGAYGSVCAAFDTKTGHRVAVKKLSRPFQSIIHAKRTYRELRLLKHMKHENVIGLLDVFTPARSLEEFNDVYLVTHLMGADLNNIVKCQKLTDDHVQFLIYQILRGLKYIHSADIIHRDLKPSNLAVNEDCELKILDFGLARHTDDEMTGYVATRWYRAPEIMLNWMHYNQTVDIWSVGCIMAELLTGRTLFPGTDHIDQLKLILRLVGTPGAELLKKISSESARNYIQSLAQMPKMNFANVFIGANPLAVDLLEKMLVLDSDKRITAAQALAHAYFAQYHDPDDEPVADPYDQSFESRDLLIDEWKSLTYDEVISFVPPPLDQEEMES
Sequence of GST-JNK1, P45983 (P45983 other isoform, or with tags, fused parts or gaps): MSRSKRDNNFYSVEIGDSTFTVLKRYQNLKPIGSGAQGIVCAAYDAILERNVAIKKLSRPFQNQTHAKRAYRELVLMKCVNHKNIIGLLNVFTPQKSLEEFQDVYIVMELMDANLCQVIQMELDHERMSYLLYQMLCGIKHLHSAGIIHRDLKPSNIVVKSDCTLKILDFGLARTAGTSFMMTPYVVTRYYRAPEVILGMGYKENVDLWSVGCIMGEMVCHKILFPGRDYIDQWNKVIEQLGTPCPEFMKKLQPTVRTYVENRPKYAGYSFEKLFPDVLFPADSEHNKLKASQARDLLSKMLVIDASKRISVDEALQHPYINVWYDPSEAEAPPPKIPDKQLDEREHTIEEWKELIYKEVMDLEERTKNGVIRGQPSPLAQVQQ

Protein	activation of the MAP kinase in vitro (32P phosphorylation of ATF-2, SDS-PAGE and autoradiography) (His-p38, P47811)	activation of the MAP kinase in vitro (32P phosphorylation of GST-cJun, SDS-PAGE and autoradiography) (His-SAPKα, Q9WTU6)	activation of the MAP kinase in vitro (32P phosphorylation of MBP, SDS-PAGE and autoradiography) (His-SAPK3, O08911)	phosphorylation (activation) of JNK1 in vitro, dot blot with anti-activated JNK antibody (GST-JNK1, P45983)
B1	activated p38 and SAPK3	did not activate SAPK	activated p38 and SAPK3	
B2				the activity of MKK7 was confirmed by the presence of activated JNK1
B3	did not activate p38 and SAPK3	specifically activated SAPK, leading to the phosphorylation of c-Jun	did not activate p38 and SAPK3	
B4	activated all of SAPK, p38 and SAPK3	activated all of SAPK, p38 and SAPK3	activated all of SAPK, p38 and SAPK3	
